Values belong to the molecule of their own block, whether it stands above or below them.
How the values were obtained:
[1] = target: T1, mouse GPR12 (Mus musculus, UniProt P35412); assay: cAMP production in CHO-K1-cell stable expression system (CHO-K1-GPR12); type: cell-based; settings: CHO-K1-GPR12, peptide 10^-9 M, Forskolin 10^-5 M, 30 minutes
T1 construct: expressed in transfected cells
T1 sequence (P35412 1-334): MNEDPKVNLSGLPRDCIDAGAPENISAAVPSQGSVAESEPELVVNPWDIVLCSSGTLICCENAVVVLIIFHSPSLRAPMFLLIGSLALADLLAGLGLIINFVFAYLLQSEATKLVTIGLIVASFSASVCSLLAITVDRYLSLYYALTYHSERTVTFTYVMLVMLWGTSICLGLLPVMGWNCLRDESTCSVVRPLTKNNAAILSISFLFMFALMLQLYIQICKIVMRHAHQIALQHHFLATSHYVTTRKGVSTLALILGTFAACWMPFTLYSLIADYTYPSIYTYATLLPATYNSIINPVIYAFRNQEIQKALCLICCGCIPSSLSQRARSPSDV
Experimental: The preparation of cells stably expressing GPR12 was conducted by a conventional method, and hereinafter described briefly. A vector (pcDNA3.1-GPR12) in which a gene (cDNA) encoding mouse GPR12 (SEQ ID NO: 8) was inserted at the downstream of a CMV promoter of pcDNA3.1 (TM) (Invitrogen Corporation) was prepared, 10 μg of the vector was mixed with 250 μL of medium OPTI-MEM™ (Invitrogen Corporation), and 10 μg of Lipofectamine™ 2000 Reagent (Invitrogen Corporation) was mixed with 250 μL of medium OPTI-MEM™, 5 minutes later both mixtures were mixed, and the resultant mixture was left over at room temperature for 20 minutes to prepare a transfection reagent. Chinese hamster ovary cells (CHO-K1) [ATCC Cat. No. CCl-61] plated onto a 6-well plate at 1.5×10^6 cells/well on the previous day in advance were washed with medium OPTI-MEM™ once, and the above-mentioned transfection reagent (vector and Lipofectamine™ 2000 Reagent) was added to the cells dropwise to perform transfection. The resultant transfected cells were incubated at 37° C. for 5 hours in a CO2 incubator, and then the medium was replaced by Ham's F12 medium. Further, the next day the medium was exchanged with Ham's F12 medium containing 100 μg/mL of Geneticin® (Invitrogen Corporation), and furthermore the next day the medium was exchanged with the same medium containing 200 μg/mL of Geneticin®, and the following day the medium was exchanged with the same medium containing 700 μg/mL of Geneticin®, and after that, culturing was continued under the conditions of 37° C. and 5% CO2 in a medium containing Geneticin® at the same concentration. […]
The measured intracellular cAMP level was evaluated in terms of a ratio (Fold) of each intracellular cAMP level with respect to the mean of the intracellular cAMP level in the (−) group that is set as unity, in which CHO-K1-GPR12 cells were cultured in the medium containing no peptide.

[2] = Amount of food intake in a mouse after intraperitoneal administration; type: in vivo; settings: C57BL/6J male mouse, 0.25 nmol per gram of body weight, 0 to 3 hours
Experimental: A 7-week-old C57BL/6J strain male mouse (CLEA Japan, Inc.) was used as an experimental animal. After purchasing the mouse, the mouse was raised at 22° C. in cycles of the 12-hour light period from 6 a.m. to 6 p.m. and the 12-hour dark period from 6 p.m. to 6 a.m. on the next morning with free access to pelleted feed (CLEA Japan, Inc., CE-2).
A 5 nmol aliquot of Nesfatin-1M30 (Mid-segment, SEQ ID NO: 11), M30_Ag-A (SEQ ID NO: 50), or M30_MSH-A (SEQ ID NO: 51) was dissolved in each 100 μL of saline, and each of the resultant solutions was administered intraperitoneally to a C57BL/6J mouse at a dose of 0.25 nmol per gram of body weight of the mouse. In the control group, only saline (Vehicle) was administered. Each mouse (5 mice in each group) was intraperitoneally given a single injection of a sample using a tuberculin syringe with 26 G needle, immediately before the dark period (6 p.m.).
Each mouse administered was placed in an individual cage, and the amount of food intake was determined by measuring the decreased amount of the pelleted feed during the period from 0 to 3 hours after the administration of a test substance. In the mouse administered with each test sample, the amount of food intake during 3 hours after the administration (g/3 h) is shown in FIG. 6.

[3] = target: T2, GPR12 (Mus musculus, UniProt P35412); assay: Expression of a CRE-reporter gene (pCRE-Luc luciferase) in NB41A3 cells expressing GPR12 endogenously; type: cell-based; settings: NB41A3 cells transfected with pCRE-Luc, 10^-12 M to 10^-8 M, 16 hours
T2 construct: in which GPR12 was endogenously expressed; endogenous in cells; host or cells: NB41A3 cells (ATCC-CCL147), mouse brain neuroblastoma
T2 sequence (P35412 1-334): T1 sequence (P35412 1-334)
Experimental: NB41A3 cells (ATCC-CCL147), a cell strain derived from mouse brain neuroblastoma, in which GPR12 was endogenously expressed were used. The confluent NB41A3 cells were recovered in a 10-cm dish, plated onto 10 cm-dishes after dividing the cell colony in four quarters, and cultured for one day in Ham's F12K medium. The cells were transected with 5 μg of the reporter plasmid pCRE-Luc (Stratagene Corporation, Catalog No. 219074) in which TATA-BOX and luciferase were incorporated into downstream of CRE by a calcium phosphate method. The cells were washed with Ham's F12K medium 16 hours after the transfection. Ham's F12K medium containing no test substance (Vehicle), Ham's F12K medium containing 10^−10 M of Nesfatin-1 M30 (Mid-Segment: SEQ ID NO: 11), Ham's F12K medium containing 10^−10 M of a modified peptide M30_Ag-A (SEQ ID NO: 50) (M30_Ag-A), and Ham's F12K medium containing 10^−10 M of a modified peptide M30_MSH-A (SEQ ID NO: 51) […] were added to the cells, and the resultant mediums were cultured under the conditions of 37° C. and 5% CO2 for 16 hours. After the culturing, the cells were washed twice with phosphate-buffered saline (PBS), lysed with 4 mL of lysis buffer (an aqueous solution containing 25 mM of glycylglicine (pH 7.8), 15 mM of magnesium sulfate, 4 mM of glycol ether diaminetetraacetic acid (EGTA), 1 mM of dithiothreitol (DTT), and 1% (volume/volume) of Triton X-100). […] After adding 200 μL of 0.2 mM of d-luciferin to the diluted cell lysate, the luminescence was measured for 10 seconds by a luminometer, and the amount of luminescence (units) was determined. Further, the amount of protein in each cell lysate was measured by BCA™ Protein Assay Kit-Reducing Agent Compatible (Pearce, Catalog No. 23250), and the value obtained by dividing the amount of luminescence (units) by the amount of protein (μg) in a sample was determined as a luciferase activity. […] The cells were cultured for 16 hours, and then the level of luciferase activity was also determined.

[4] = target: T3, mGPR12 (Mus musculus, UniProt P35412); assay: cAMP production in HeLa-cell transient expression system; type: cell-based; parameters: expressed in transfected cells; host or cells: HeLa cells (transient, lipofection); settings: mGPR12-transiently expressing HeLa cells, ligand 10^-6 M
T3 sequence (P35412 1-334): T1 sequence (P35412 1-334)
Experimental: A GPCR expression vector prepared in Example 4 was introduced into HeLa cells by lipofection and transiently expressed.
HeLa cells were peeled off using trypsin EDTA and recovered, and plated onto a 6-well plate with 7×10^5 cells/2 mL/well to perform overnight culture using a CO2 incubator. The next day, a plasmid solution was prepared by adding 4 μg of plasmid into 250 μL of a serum-free Opti-MEM medium. On the other hand, a Lipofectamine 2000 solution was prepared by adding 10 μL of Lipofectamine 2000 (Invitrogen Corporation) into 250 μL of the serum-free Opti-MEM medium. These solutions were incubated at room temperature for 5 minutes, and the Lipofectamine 2000 solution was added bit by bit into the plasmid solution. The resultant mixture was incubated at room temperature for 20 minutes to prepare a solution for lipofection. […]
The 5× Ligand solution was added at 20 μL/well so that the final concentration may become 10^−6 M, and the plate was incubated in a CO2 incubator for 30 minutes. […] Further, in order to lyse the cells completely, the cells were frozen once at −20° C. and lysed again, and then the intracellular cAMP concentration was measured using cAMP-Screen System (Applied Biosystems, T1500).

intracellular cAMP level compared with the group (-) cultured in medium containing no peptide [1]: about 10 fold
concentration-dependent enhancement of the luciferase activity [3]: observed
Molecule: M30_MSH-A: human Nesfatin-1M30 with the 22nd to 25th residues from the N-terminus substituted with alanine, SEQ ID NO: 51 (PDTGLYYDEYLKQVIDVLETDAAAAEKLQK; Synthetic M30_MSH-A peptide)
amount of food intake during 3 hours after the administration compared with control group (Vehicle) [2]: significant decrease of the food intake

intracellular cAMP level compared with the group (-) cultured in medium containing no peptide [1]: hardly elevated
concentration-dependent enhancement of the luciferase activity [3]: not found
Molecule: M30_Ag-A: human Nesfatin-1M30 with the 11th (Leu) and 13th to 17th residues from the N-terminus substituted with alanine, SEQ ID NO: 50 (PDTGLYYDEYAKAAAAALETDKHFREKLQK; Synthetic M30_Ag-A peptide)
amount of food intake during 3 hours after the administration compared with control group (Vehicle) [2]: no difference

B1: mouse Nesfatin-1: recombinant mouse Nesfatin-1 (82 amino acids) expressed in Escherichia coli as a GST-His fusion protein and cleaved by thrombin (protein)
chain: VPIDVDKTKVHNTEPVENARIEPPDTGLYYDEYLKQVIEVLETDPHFREKLQKADIEEIRSGRLSQELDLVSHKVRTRLDEL
cAMP production ([4]; with Forskolin addition (2 μM)): increase in cAMP production was confirmed
cAMP production ([4]; without Forskolin addition): increase in cAMP production was confirmed

Source: patent US8221990B2, “Screening GPR12 receptor for substances having Nesfatin-1-like action, or which regulate Nesfatin-1 action” (Teijin Pharma Limited, priority 2007, dated 2012)
